Measurements published in patent US20070020717A1 (ARBOR VITA, published 2007).

B1: GST-PDZ fusion protein, PDZ domain of MAST2 (Accession no. AB047005) (other)
chain: ISALGSMRPPIIIHRAGKKYGFTLRAIRVYMGDSDVYTVHHMVWHVEDGGPASEAGLRQGDLITHVNGEPVHGLVHTEVVELILKSGNKVAISTTPLENSS
notes: also called MAST2 PDZ domain
B2: GST-PDZ fusion protein, PDZ domain of SHANK1 (GID 7025450) (other)
chain: ILKEKTVLLQKKDSEGFGFVLRGAKAQTPIEEFTPTPAFPALQYLESVDEGGVAWRAGLRMGDFLIEVNGQNVVKVGHRQVVNMIRQGGNTLMVKVVMVTRHPDMDEAVQNSS
notes: also called SHANK1 PDZ domain
B3: GST-PDZ fusion protein, PDZ domain of SHANK2 (GID 6049185) (other)
chain: ILEEKTVVLQKKDNEGFGFVLRGAKADTPIEEFTPTPAFPALQYLESVDEGGVAWQAGLRTGDFLIEVNNENVVKVGHRQVVNMIRQGGNHLVLKVVTVTRNLDPDDNSS
notes: also called SHANK2 PDZ domain
B4: GST-PDZ fusion protein, PDZ domain of SHANK3 (XM_037493 GID: 51476100) (other)
chain: SDYVIDDKVAVLQKRDHEGFGFVLRGAKAETPIEEFTPTPAFPALQYLESVDVEGVAWRAGLRTGDFLIEVNGVNVVKVGHKQVVALIRQGGNRLVMKVVSVTRKPEEDG
notes: also called SHANK3 PDZ domain

How the values were obtained:
[1] = biological target: T1, Peptide 1956 (N-terminally biotinylated Tat-COX-2 peptide); assay: ELISA (modified G assay): GST-PDZ captured by anti-GST antibody, biotinylated peptide, HRP-streptavidin
T1 construct: also called PL of COX-2

[2] = biological target: T1, Peptide 1956 (N-terminally biotinylated …); assay: ELISA titration of the biotinylated peptide on captured GST-PDZ

Binder	binding result [1]	binding result [2]
B1	binds	
B2		binds
B3		binds
B4		binds
